These are literature values, as cited in publication PMC8262464.

In this series the target is TLR2 (Homo sapiens) (UniProt O60603). Description: SPR. On the technique in general: Surface plasmon resonance follows binding to a sensor surface in real time, without labels.
Chain of UniProt O60603 (O60603 21-588): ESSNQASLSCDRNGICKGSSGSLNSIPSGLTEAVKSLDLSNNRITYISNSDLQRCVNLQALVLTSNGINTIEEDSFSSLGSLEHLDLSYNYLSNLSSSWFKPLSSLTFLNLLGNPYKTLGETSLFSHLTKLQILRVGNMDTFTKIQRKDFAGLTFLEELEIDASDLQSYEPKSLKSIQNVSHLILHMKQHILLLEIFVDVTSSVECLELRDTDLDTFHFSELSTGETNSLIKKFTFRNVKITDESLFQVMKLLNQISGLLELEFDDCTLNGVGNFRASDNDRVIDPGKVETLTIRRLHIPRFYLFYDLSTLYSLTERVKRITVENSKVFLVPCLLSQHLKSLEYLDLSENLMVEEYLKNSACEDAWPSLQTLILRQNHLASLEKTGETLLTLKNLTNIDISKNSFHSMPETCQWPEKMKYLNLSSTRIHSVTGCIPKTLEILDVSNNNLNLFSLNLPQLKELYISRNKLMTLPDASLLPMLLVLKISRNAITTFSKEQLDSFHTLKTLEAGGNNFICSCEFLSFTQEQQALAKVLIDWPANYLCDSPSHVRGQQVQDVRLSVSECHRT

The Kd is the concentration at which binding is half-saturated. On to MMP2 (from UniProt P08253), for which the Kd is 32.2 nM.
